How the values were obtained:
[1] = system: T1, DinJ;YafQ_pa4366 (Lacticaseibacillus paracasei 4366;Lacticaseibacillus paracasei 4366), ORF:82b9b73a+ORF:f6e62217; assay: competition; conditions: EMSA: 2 nM DNA, 128 ng salmon sperm DNA in 10 uL, 50 mM Tris-HCl pH 7.5, 50 mM KCl, 5% glycerol, room temperature 10 min, 6% native PAGE in TBE; RNAP …
T1 sequence 1: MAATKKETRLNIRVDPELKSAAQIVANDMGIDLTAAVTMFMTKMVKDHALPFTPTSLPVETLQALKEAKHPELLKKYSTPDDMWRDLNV
T1 sequence 2: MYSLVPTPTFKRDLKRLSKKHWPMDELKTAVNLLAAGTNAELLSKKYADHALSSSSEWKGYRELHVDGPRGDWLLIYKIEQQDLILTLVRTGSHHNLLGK

[2] = system: DinJ R13A (Lacticaseibacillus paracasei 4366); assay: EMSA; conditions: complete loss of binding up to 1.5 uM; EMSA: 2 nM DNA, 128 ng salmon sperm DNA in 10 uL, 50 mM Tris-HCl pH 7.5, 50 mM KCl, 5% glycerol, room temperature 10 min, 6% native PAGE in TBE; RNAP …
[3] = system: DinJ;YafQ_pa2333 (Lacticaseibacillus paracasei 4366;Lacticaseibacillus paracasei 2333); assay: EMSA; conditions: EMSA: 2 nM DNA, 128 ng salmon sperm DNA in 10 uL, 50 mM Tris-HCl pH 7.5, 50 mM KCl, 5% glycerol, room temperature 10 min, 6% native PAGE in TBE; RNAP …
[4] = system: DinJ;YafQ_pa4366 (Lacticaseibacillus paracasei 4366;Lacticaseibacillus paracasei 4366); assay: EMSA; conditions: EMSA: 2 nM DNA, 128 ng salmon sperm DNA in 10 uL, 50 mM Tris-HCl pH 7.5, 50 mM KCl, 5% glycerol, room temperature 10 min, 6% native PAGE in TBE; RNAP …

| Substance | binding [1] | Kd [2] [nM] | Kd [3] [nM] | Kd [4] [nM] |
| --- | --- | --- | --- | --- |
| CGTCCTCAAGCTGCTCTTGTGTTAATGGTTTCTTTTTTGTGCTCATACGTTAAATCTATCACCGCAAGGGATAAATATCTAACACCGTGCGTGTTGACTATTTTACCTCTGGCGGTGATAATGGTTGCATGTACTAAGGAGGTTGTATGGAACAACGCATAACCCTGAAAGATTATGCAATGCGCTTTGGGCAAAC (double strand) [196-bp lambda PR promoter fragment] | no binding | – | – | – |
| 194-bp dinJ-yafQ promoter fragment | – | > 1500 | 79 | 44 |

From article PMC9592637, “Functional characterization and transcriptional repression by Lacticaseibacillus paracasei DinJ-YafQ” (Applied Microbiology and Biotechnology, 2022)
